The values below come from patent US20250042994A1 (HAINAN SIMCERE ZAIMING PHARMACEUTICAL, published 2025).

One assay has as its target T1, murine CD19 protein (murine, UniProt P25918 17-287, limits assumed).
T1 construct: bought protein; also called commercial murine CD19
T1 sequence (looked up): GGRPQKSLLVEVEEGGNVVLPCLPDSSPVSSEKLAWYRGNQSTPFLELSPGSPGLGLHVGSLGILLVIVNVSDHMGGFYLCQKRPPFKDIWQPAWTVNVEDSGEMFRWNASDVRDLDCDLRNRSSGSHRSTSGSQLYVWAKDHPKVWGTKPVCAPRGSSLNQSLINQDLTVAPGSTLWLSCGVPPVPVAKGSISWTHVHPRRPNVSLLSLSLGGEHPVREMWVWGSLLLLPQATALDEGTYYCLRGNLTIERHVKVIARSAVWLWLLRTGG
The experiment in a line: ELISA. The procedure:
Human CD19-his protein (purchased from ACROBiosystems, catalog number: CD9-H52H2) was diluted with PBS to a final concentration of 4 μg/mL, and then added to a 96-well ELISA plate at 100 μl/well. The plate was sealed with a plastic film and incubated overnight at 4° C., the plate was washed 2 times with PBS the next day, and then a blocking solution [PBS+2% (w/w) BSA] was added for blocking at room temperature for 2 h. The blocking solution was poured off, and 100 nM gradiently diluted CD19 chimeric antibody or control antibody was added at 50 μl/well. After incubation at 37° C. for 2 h, the plate was washed 3 times with PBS. […] TMB substrate was added at 50 μl/well, and incubated at room temperature for 10 min, and then a stop solution (1.0 N HCl) was added at 50 μl/well. The OD450 nm values were read by an ELISA microplate reader (Multimode Plate Reader, EnSight, purchased from Perkin Elmer).
In order to detect the species cross-binding activity of the chimeric antibodies, an ELISA plate was coated with commercial murine CD19 (ACROBiosystems, catalog number: 50510-M08H) and monkey CD19 (ACROBiosystems, catalog number: 90051-C08H), respectively, and the ELISA detection was performed according to the method in example 5.1. […]

Assay [1] concerns the target T2, human CD19 exon1-3-his protein (human, UniProt P15391 20-186, limits assumed).
T2 construct: made in HEK293E cells; also called membrane-distal end; not shown: His tag
T2 sequence (looked up): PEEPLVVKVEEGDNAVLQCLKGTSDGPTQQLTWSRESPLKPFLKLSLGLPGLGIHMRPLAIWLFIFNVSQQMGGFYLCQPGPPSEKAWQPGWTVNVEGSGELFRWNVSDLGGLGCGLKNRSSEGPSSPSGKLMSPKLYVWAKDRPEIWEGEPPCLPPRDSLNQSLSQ
The experiment in a line: ELISA, coated at 2 ug/mL. Background: ELISA stands for enzyme-linked immunosorbent assay.

Assay [2] has as its target T3, Human CD19-his protein (human, UniProt P15391 20-291).
T3 construct: bought protein; also called recombinant human CD19-His; CD19 full-length protein; not shown: His tag
T3 sequence (looked up): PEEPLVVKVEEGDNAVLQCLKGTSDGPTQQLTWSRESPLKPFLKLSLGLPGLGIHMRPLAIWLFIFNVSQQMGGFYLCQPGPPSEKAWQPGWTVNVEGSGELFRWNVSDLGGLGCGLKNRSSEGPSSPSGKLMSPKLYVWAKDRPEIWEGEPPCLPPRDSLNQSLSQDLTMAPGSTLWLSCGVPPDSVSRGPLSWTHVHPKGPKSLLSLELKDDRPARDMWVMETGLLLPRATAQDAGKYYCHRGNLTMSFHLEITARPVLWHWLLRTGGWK
The experiment in a line: ELISA, coated human CD19-His.

The target of assay [3] is T3, Human CD19-his protein. The experiment in a line: ELISA on coated human CD19-His.
The target of assay [4] is T3, Human CD19-his protein. The experiment in a line: SPR Biacore, Ab captured on Protein A, CD19-His analyte. In outline:
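Antibodies were captured on a Protein A chip at 25 °C in HBS-EP+. Human CD19-His was injected for 240 s at 30 μl/min at 5 concentrations from 200 nM (1:1 dilutions), with dissociation up to 600 s. Data were double-referenced and fitted to a Langmuir 1:1 model for apparent KD.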
Background: Surface plasmon resonance follows binding to a sensor surface in real time, without labels.

Assay [5] deals with T4, human CD19 exon1-3-His tag protein (human, UniProt P15391 20-186, limits assumed).
T4 construct: membrane-distal part of the extracellular region, made in HEK293E cells; not shown: His tag
T4 sequence (looked up): T2 sequence (looked up)
The experiment in a line: ELISA on coated human CD19 exon 1-3-His.

For assay [6], the target named is T4, human CD19 exon1-3-His tag protein. The experiment in a line: ELISA, coated human CD19 exon 1-3-His.
A further assay has as its target T5, human CD19 on Raji cells (human, UniProt P15391 20-556).
T5 construct: whole, on cells
T5 sequence (looked up): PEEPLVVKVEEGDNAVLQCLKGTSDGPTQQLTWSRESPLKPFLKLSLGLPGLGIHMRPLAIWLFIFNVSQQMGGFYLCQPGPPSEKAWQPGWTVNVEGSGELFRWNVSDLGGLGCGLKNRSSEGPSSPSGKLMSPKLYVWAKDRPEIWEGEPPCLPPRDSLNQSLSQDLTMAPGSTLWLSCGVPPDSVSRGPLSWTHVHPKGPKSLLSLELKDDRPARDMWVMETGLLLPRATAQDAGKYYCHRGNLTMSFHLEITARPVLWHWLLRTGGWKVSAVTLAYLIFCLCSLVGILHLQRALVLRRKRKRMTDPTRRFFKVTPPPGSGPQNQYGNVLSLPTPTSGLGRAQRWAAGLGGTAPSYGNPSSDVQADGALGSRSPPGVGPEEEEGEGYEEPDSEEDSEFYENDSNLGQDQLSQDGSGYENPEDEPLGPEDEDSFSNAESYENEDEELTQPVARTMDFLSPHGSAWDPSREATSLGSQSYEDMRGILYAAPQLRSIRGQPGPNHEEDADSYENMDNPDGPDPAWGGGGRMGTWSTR
The experiment in a line: FACS on Raji cells.

The target in assay [7] is T3, Human CD19-his protein. The experiment in a line: SPR Biacore, method of example 7.1, human CD19-His. Summed up: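 Antibody captured on Protein A chip; recombinant human CD19-His injected for 240 s at 30 μl/min, five 1:1 dilutions from 200 nM, dissociation up to 600 s.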
Assay [8] deals with T6, human CD19 on CHO-K1-human CD19 cells (human, UniProt P15391 20-556).
T6 construct: whole, on cells; also called CHO-K1-human CD19-2C8
T6 sequence (looked up): T5 sequence (looked up)
The experiment in a line: FACS on CHO-K1-human CD19 cells.

Residue numbers refer to the chain shown, from its start.

B1: F3.121.4-L1H2 (antibody, mouse IgG1, kappa, V domains shown)
VH: EVQLVQSGAEVKKPGASVKVSCKASGYTFTNYWMHWVRQAPGQGLEWMGEIDPSDNYANYNQEFQGRVTITVDKSASTAYMELSSLRSEDTAVYYCARHDGYFGALDYWGQGTTVTVSS
VL: EIVLTQSPATLSLSPGERATLSCSASSSISSNYLHWYQQKPGQAPRFLIYRTSNLASGIPARFSGSGSGTDFTLTISSLEPEDFAVYYCQQASSIPRMFTFGQGTKLEIKR
notes: murine IgG1 constant regions; also called humanized antibody of F3.121.4
With B1, the binding result (with murine CD19 protein; in assay [1]) was “no binding” throughout.

B2: F3.121.4-L2H2 (antibody, mouse IgG1, kappa, V domains shown)
VH: B1 VH
VL: EIVLTQSPDFQSVTPKEKVTITCSASSSISSNYLHWYQQKPDQSPKLLIKRTSNLASGVPSRFSGSGSGTDFTLTINSLEAEDAATYYCQQASSIPRMFTFGQGTKLEIKR
notes: as for B1
On to B2, for which the binding result (in the assay with murine CD19 protein; in assay [1]) was “no binding” each time.

B3: F3.121.4-L2H1 (antibody, mouse IgG1, kappa, V domains shown)
VH: B1 VH with G44R
VL: B2 VL
notes: as for B1
Regarding B3, the binding result (with murine CD19 protein; in [1]) was “no binding” in each case.

B4: F3.121.4-L1H4 (antibody, mouse IgG1, kappa)
heavy: EVQLQQSGAEVKKPGASVKVSCKASGYTFTNYWMHWVRQRPGQGLEWMGEIDPSDNYANYNQEFQGRVTITVDKSASTAYMELSSLRSEDTAVYYCARHDGYFGALDYWGQGTTVTVSSAKTTPPSVYPLAPGSAAQTNSMVTLGCLVKGYFPEPVTVTWNSGSLSSGVHTFPAVLQSDLYTLSSSVTVPSSTWPSETVTCNVAHPASSTKVDKKIVPRDCGCKPCICTVPEVSSVFIFPPKPKDVLTITLTPKVTCVVVDISKDDPEVQFSWFVDDVEVHTAQTQPREEQFNSTFRSVSELPIMHQDWLNGKEFKCRVNSAAFPAPIEKTISKTKGRPKAPQVYTIPPPKEQMAKDKVSLTCMITDFFPEDITVEWQWNGQPAENYKNTQPIMDTDGSYFVYSKLNVQKSNWEAGNTFTCSVLHEGLHNHHTEKSLSHSPGK
light: EIVLTQSPATLSLSPGERATLSCSASSSISSNYLHWYQQKPGQAPRFLIYRTSNLASGIPARFSGSGSGTDFTLTISSLEPEDFAVYYCQQASSIPRMFTFGQGTKLEIKRADAAPTVSIFPPSSEQLTSGGASVVCFLNNFYPKDINVKWKIDGSERQNGVLNSWTDQDSKDSTYSMSSTLTLTKDEYERHNSYTCEATHKTSTSPIVKSFNRNEC
notes: as for B1
For the molecule B4, the binding result (with murine CD19 protein; in assay [1]) was “no binding” each time.

B5: F3.121.4-L1H3 (antibody, mouse IgG1, kappa)
heavy: B4 heavy with Q5V
light: B4 light
notes: as for B1
On to B5, for which the binding result (with murine CD19 protein; in [1]) was “no binding” throughout.

B6: F3.121.4-L1H1 (antibody, mouse IgG1, kappa, V domains shown)
VH: B1 VH with G44R
VL: B1 VL
notes: as for B1
As for B6, the binding result (with murine CD19 protein; in [1]) was “no binding” in each case.

B7: F3.121.4-L2H3 (antibody, mouse IgG1, kappa)
heavy: B4 heavy with Q5V
light: EIVLTQSPDFQSVTPKEKVTITCSASSSISSNYLHWYQQKPDQSPKLLIKRTSNLASGVPSRFSGSGSGTDFTLTINSLEAEDAATYYCQQASSIPRMFTFGQGTKLEIKRADAAPTVSIFPPSSEQLTSGGASVVCFLNNFYPKDINVKWKIDGSERQNGVLNSWTDQDSKDSTYSMSSTLTLTKDEYERHNSYTCEATHKTSTSPIVKSFNRNEC
notes: as for B1
Regarding B7, the binding result (with murine CD19 protein; in [1]) was “no binding” in each case.

B8: F3.121.4 (antibody, human IgG1, V domains shown)
VH: QVQLQQPGAELVVPGTSVKLSCKASGYTFTNYWMHWVKQRPGQGLEWIGEIDPSDNYANYNQEFQGKATLTVDKSSSTAYMQLSSLTSDDSAVYYCARHDGYFGALDYWGQGTSVTVSS
VL: EIVLTQSPTTMAASPGEKITITCSASSSISSNYLHWYQQKPGFSPKFLIYRTSNLASGVPARFSGSGSGTSYSLTIGTMEAEDVATYYCQQASSIPRMFTFGSGTKLEIK
notes: human-murine chimeric antibody, human IgG1 constant; also called chimeric antibody F3.121.4
For B8, in the assay with Human CD19-his protein [2], the “OD450 at 0.0001 nM” value stood at 0.05 OD450, the “OD450 at 0.001 nM” value amounted to 0.06 OD450, the “OD450 at 0.01 nM” value is 0.11 OD450 and the “OD450 at 0.10 nM” value was determined as 0.5 OD450. Also, in the assay with Human CD19-his protein [2], the “OD450 at 1.00 nM” value came out at 0.88 OD450, the “OD450 at 10 nM” value was 1.04 OD450 and the “OD450 at 100 nM” value worked out at 0.82 OD450. In the assay with Human CD19-his protein [3], the “EC50 (read off the curve)” value is roughly 0.1 nM. Besides, in the assay with Human CD19-his protein [4], binding was characterised by a dissociation constant (Kd) of 1.15 nM, the koff is 0.000375 s⁻¹ and the on-rate constant (kon) is 327000 M⁻¹ s⁻¹. In addition, the binding result in assay [5] was “no binding (tested: 100 nM)”. In assay [6], the “OD450 at 0.0001 nM” value came out at 0.05 OD450, the “OD450 at 0.001 nM” value was found to be 0.05 OD450, the “OD450 at 0.01 nM” value was 0.05 OD450 and the “OD450 at 0.10 nM” value is 0.05 OD450. Also, in assay [6], the “OD450 at 1.00 nM” value stood at 0.05 OD450, the “OD450 at 10 nM” value was 0.05 OD450 and the “OD450 at 100 nM” value amounted to 0.07 OD450. Moreover, in the assay with human CD19 on Raji cells, the midpoint of the response, the EC50, lay at 0.31 nM and the “Maximum mean fluorescence intensity” value was 32900 MFI. In the assay with Human CD19-his protein [7], this molecule yielded a dissociation constant Kd of 1.15 nM, a koff of 0.000375 s⁻¹ and a kon of 327000 M⁻¹ s⁻¹. Further, in assay [8], the EC50 worked out at 0.3 nM and the “Maximum mean fluorescence intensity” value worked out at 53700 MFI.

The term EC50 (read off the curve) denotes the concentration giving half of the maximal effect. As usually defined, the Kd is the equilibrium constant for the complex coming apart. High values mean lower affinity, low ones higher affinity. As usually defined, the koff is a measure of how fast the partners let go of each other. Low readings indicate slow dissociation, high ones fast dissociation. What is called kon is the second-order rate constant of association. For orientation: EC50 means the concentration needed to bring the measured effect to its halfway point. A high value points to a need for much substance.
